The record followed here is the domain aggregation screens of Martell et al. (2025).

A short description of this data set: soluble fraction after stress (log2 fold change); higher = more stays soluble; pooled small domains, quantitative proteomics. Particulars: stress: pH 4. In short, it runs like this:
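Values are log2 fold changes, and higher ones mean more of the domain stayed soluble. Each fold change reflects the soluble amount of a domain after acid stress and is taken as a measure of aggregation propensity. The stress was pH 4, applied to pooled custom libraries of small protein domains analysed by high-throughput quantitative proteomics.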
Regarding “HMGTESFGARIRKIREARDWTPAALAEATGQTPEFVARVERDEVAPPVAFLLRLAAALGVDPSTF”, the “soluble fraction (log2)” value was -0.672.

Regarding “HMGTGADKNSWTIGDKVKHRKWGTGTVVKVTGAGEDAELDIAFKSEGIKRLLAAFAPIEKVK”, the “soluble fraction (log2)” value is -0.0706.

Take “HMGTHDAGTRFFDNLDSLLQNRDATRADVLAVYLLAVSLGFRGKHRSVSSAPQIAHYRNQAYVTLFQ”: the “soluble fraction (log2)” value was -0.386.

With “HMGTIEQAFKGKAPGSAHLYDRARAVLAGGVTHDTRIHAPFPIMVQRALGARKWDVDGNEYIDY”, the “soluble fraction (log2)” value is -0.259.

On to “HMGTMKGFVDGSSVHLRSGPSLSESIRAKVVKGQTLYITERRGDWYRATVHGGGEGWIHTSLVKLAG”, for which the “soluble fraction (log2)” value was found to be 0.261.

Regarding “HMGTPLYLLLAAEVRDRIATEQLAPHTAVPSERELAELHGVSRMTARQALALLESEGLVYRNPPRGTFVAE”, the “soluble fraction (log2)” value is -0.922.

With “HMGTQIKSPMPGTILDVRVNVGDTVKEGDILMILEAMKMENEILAPVSGKVAAIQVSKGTAVNSGDLLAVL”, the “soluble fraction (log2)” value is -0.404.

On to “HMGTRHPLPYAYARANTVLLEDDGDRLVLWAPENVSLTALGEVLRRFDVDALERESSSTLANRIAVAYAG”, for which the “soluble fraction (log2)” value is -0.896.

As to “HMGTTLTKIPGIGENRARLLLRHFGSLRAVREADADALAAVKGMTRPAAEAIVRYFEQQDAEGRRD”, the “soluble fraction (log2)” value worked out at 0.336.

With “HMGTTTPPATRKGKVTSSFLNVRSGPSTANAKVAELKQNAVVTIYETSSNGWHRIGVNQWVIGTNIQE”, the “soluble fraction (log2)” value is -0.121.

On to “HMGTVSSGSSSTDTPFSLGEIVRHKVFGEGVVLSIEGQGDASRIQINFNTAGTKWLVTAYADLEK”, for which the “soluble fraction (log2)” value was -1.28.

As to “HMGTVVKRNALVHAWTEFNGGRASTKLLALGPGKVGEWIELENPQSGRKLRGEVQVDGSVRLG”, the “soluble fraction (log2)” value is 0.296.

For the sequence “HMGTWKKIGTMTATVNDLYVRETPNGYIMGFINKGTVVEVDGKTTGKWTHAKVEGIGVGWIWTGYLDK”, the “soluble fraction (log2)” value came to 0.161.

Turning to “HMGTYYTEIIAQLKKEIANGTWKLGERLPGELALAKQFNVSRSSIREALKALAYAGIVESKPGRGTFLLHV”, the “soluble fraction (log2)” value was -0.207.

As for “HMGVAAEDPDEAEKGAHSLKSSAANVGAEVVRGLAGEIESAASSGDVEAVRTILPGLEDAYSQAITDLET”, the “soluble fraction (log2)” value stood at 0.133.

Take “HMGVDMGPAKYVGQKALTATEMRPAGKIQIGQTVFDAVSVGPFIGARKAVKVIKYENAQLYVEPE”: the “soluble fraction (log2)” value turned out to be 0.116.

As to “HMGVEVEVPNVKGKLVADAEYELGLAQLTPVRTDSAYNRNLPPGTVLEQLPASGSHVKEGREIYLTINST”, the “soluble fraction (log2)” value stood at 0.155.

Turning to “HMGVGERIKARRKEIGLSAEQVAKELGVSPATVYRYESNDIMNMRIDKLEPIAKALHTTPAYLMGWE”, the “soluble fraction (log2)” value is 0.155.

For “HMGVGVKSTEVDYQRTSSGSDIPTDDAAWTKTIPAVKVNTFLWTRTKINYTDGTSAIFYSVGY”, the “soluble fraction (log2)” value is 0.419.

As to “HMGVGVPVTLLLEKLGEDTLSAQQIMERLGLKSRASFRKVYLVPALEQKLIEMEFPDKPNSSKQRYRR”, the “soluble fraction (log2)” value was -0.00401.

Turning to “HMGVISRVITFWQNGFTVDDGPLRAFDDPANMAFMESIGRGEAPAELAPKTRTQRVNINLVQRHEPYSAPK”, the “soluble fraction (log2)” value is -0.934.

Turning to “HMGVITVRPPIVVRDFAIALNLKPFQVIGNLMELNKVVSVSSVIEEADARKVAERHGYTLEIRH”, the “soluble fraction (log2)” value is -0.133.

For “HMGVMNEYEELRDRYLTGQIWKIGDLVEAKGIEGKIIQRGTNYITFNDSQGKVHKAWLHEIKV”, the “soluble fraction (log2)” value was no less than 0.43.

Turning to “HMGVNNDIIKHRKLEFMIEMLPDTFTRKEANEIGEGLGISLATLTRYLSSDAFERTGHGRYRKKD”, the “soluble fraction (log2)” value came out at 0.139.

With “HMGVPTEQEIGKRILAWRKLRGMTLQQLADKAGVGLTTIHNLETGLWYAKMPTYLYIAEALGVSLDALIYG”, the “soluble fraction (log2)” value came out at 0.0266.

Turning to “HMGVPVTAPMPGKVLKVTVSVGAAVKNGDLVLVLEAMKMENEIFATANGVVKEIRSREGDTVNSGDVMMVI”, the “soluble fraction (log2)” value is -1.35.

For the sequence “HMGVRPAALGFQKVRIEPQVGTFREASGDVITPRGLIHAEWKRDEENALHLHYTLPDGVAYA”, the “soluble fraction (log2)” value is -0.109.

Turning to “HMGVSDDMARGVVRARQFLSDFAAVPLDRMTPAEAVARARQLKSELETDAKHSPWLLDVLSNA”, the “soluble fraction (log2)” value was -0.37.

Consider “HMGVSEIGSPAWMESKLVTLASYEGSLDGLRTLWGGVAQHRARIPVESWDRLFAAKEEGKARLVKLGRT”, for which the “soluble fraction (log2)” value was 0.0299.

With “HMGVSLREVPVAEHGDWIGRPIKELGIPAEVLIVLVRRADGTTVVPKGGTVLQQGDMLVVNEWEE”, the “soluble fraction (log2)” value is -1.25.

As to “HMGVTDSSYNVLRRQILEMLSVQQRTPADLARLIEADKEEIAAVIRFLLDKGEIQMEDGMLQTK”, the “soluble fraction (log2)” value was -0.151.

Regarding “HMGVVEEVAADFEGRAVVGKVDVDEQTELARRFGIMSIPTLVVMKGGKVVEQAVGARGKADIAAMLERH”, the “soluble fraction (log2)” value was -0.673.

Consider “HMGYINLNVKVSPEWRDFWRSAYASVVAGYHQNKEHWNTIILDGSIPDKDIKRMIAESYDLVSD”, for which the “soluble fraction (log2)” value was -0.662.

“HMGYLNDRQRLIKDFITENQPLKVSDLVKQFPNIGLSTLKKDLQYLRGEQVLTMIGKGKGSVYVLNKK”: the “soluble fraction (log2)” value is no less than 0.43.

Turning to “HMGYNDQEVKSNLITLLSTSKTGLSGVEISAQLGINRVTMTKFLNVFAAEGIIKQKNIGNLNLWLVEEGTE”, the “soluble fraction (log2)” value is -0.05.

On to “HMGYTTSFVVQLKNAVSISFDEIDQNLRKLPGVEDVVIVEEAAMAYLKVDRQHFREEQLAHFEFVRQ”, for which the “soluble fraction (log2)” value is -1.6.

Turning to “HMGYVQLTAREKEVLQGLVDGASYKMIAAKLDIRFGTVHTHVKNIYEKLHVNSASEAVVKAIRQRL”, the “soluble fraction (log2)” value is -0.743.

Take “HMHADIAATVVATMRQLGVLGLPRNYEIFYEALSGTNRELSLAVVSLSNRPTQDDLDRIGRRFFA”: the “soluble fraction (log2)” value is -0.426.

With “HMHAEEIAREAKEALERGEEFHFAGITVRSEEALEFLEEWLRKFF”, the “soluble fraction (log2)” value was -1.23.

With “HMHALSVKFSDEAAKTLPYDILSALRDVLALDPRPGYSRDENKIYRFEYADYNISFSVKDKTLTVLSAEK”, the “soluble fraction (log2)” value is -0.148.

For the sequence “HMHAPRIEVVQIDPEKIGALIGPGGKNIRRITEVTGANLDIDEDNSGKIRVYASDSEAMNRALQEIDLVT”, the “soluble fraction (log2)” value is -0.18.

“HMHDHKTRLQELAAQRFGSAPSYLLTADGPAHDRRFHASVEVGGRSFGPGTGKSKKRAEQVAAHIAWDALS”: the “soluble fraction (log2)” value was determined as 0.415.

As to “HMHDIPDITDLRPLRHTLGLTLAHAAQQLNTTTATISRLERGQHRNDHLATTYRTWLHTHPT”, the “soluble fraction (log2)” value turned out to be 0.08.

Regarding “HMHDLSQQIVRYLIQQGGSSSLTDKSDPQEIYRTFKVSKKKYKQALGNLYKSKTIVITSGKIELVD”, the “soluble fraction (log2)” value is 0.306.

Turning to “HMHDYNTIVGVIEMRDKNIPLTSIRQRYGIGYSGIDLILTRYKDSGLTLKEFLALDPSQAEELIYPPK”, the “soluble fraction (log2)” value was -0.134.

In the case of “HMHEHWDGSGFPKHLRGANIPLGARVIAVADTYDSITSSRAYRAGSTHEAAEREMRRVSGTQLDPE”, the “soluble fraction (log2)” value worked out at 0.0226.

Consider “HMHEIVDTVLQVKQSVEADPLIAPALKNKEIVFQLNAKGVFQFKNAVIQVASALGISKNTVYMHLRNNK”, for which the “soluble fraction (log2)” value was -0.14.

On to “HMHETMGQIIKRLRKERGLTQESLAERLGVTFQAVSKWETDAGMPDVSQIVPLANAFGVRTDVLFGLEGRD”, for which the “soluble fraction (log2)” value was 0.187.

For “HMHEYSRIYQQQWWDNATGADAYHVIHSARSRAAQDPEAARALEYLEEQFRIRYGVRTEDFLGYLHD”, the “soluble fraction (log2)” value was -1.31.

For the sequence “HMHFENEETFVLPLVREGFSEQQQLEMVDRLLFDANTDNPRWIIDWMASELPSTQRELLLDLEKRLAEVRS”, the “soluble fraction (log2)” value is -0.358.

For “HMHFEWNELRKAINDFLAEQNMNEDKQLGPYFIQRDIVVPETGTEIDSKKFSEVFKHKVIMYLFDDAAKQ”, the “soluble fraction (log2)” value is -0.441.

For the sequence “HMHGESISVPDLRGQKMERMPAFLADKHLQFKVIDSLFDLEKNPGTVLEQDPAPNSKVKEGRTIYLTVNAQ”, the “soluble fraction (log2)” value was -0.118.

For “HMHGQGTYTSPDGTKYVGDWQDEKMHGQGTYTYPDGMKFVGEFKDNKPWNGTGYDKYGNVKATFSNGVGKS”, the “soluble fraction (log2)” value worked out at 0.22.

Take “HMHGSSSTVPPVKGLSFEQARLTLAENDLTVEISDSIYDRNARPGTVVESWPRAGSVVKQGRQVYVTVTAF”: the “soluble fraction (log2)” value is -0.685.

Turning to “HMHHDDHNQQEEIKEKLLAMVADGERHHVTEVRQLDEDWDMVTKVMKELMDEEQLLMDGSYLILSA”, the “soluble fraction (log2)” value was -0.551.

In the case of “HMHHSGLRQSQFDEISRQIRSLLEMESLSLQELKTRMEDVPEEQLTKVVSYLLSEEIIRQENGRLQ”, the “soluble fraction (log2)” value was -1.35.

Turning to “HMHKAVVGPPNARKLAVTYGFKRWPALVFFRDGKYLGAVDGLRLWADLVREADEIMHSEPHYP”, the “soluble fraction (log2)” value amounted to 0.22.

Turning to “HMHKFMEQNQDRRLSRMKELIGILSEAAKTYYQESREIMSNFQYDRMYDELLELEKETGVVMAGSPTQKV”, the “soluble fraction (log2)” value is -0.98.

As for “HMHKKQEVQDSIDAAEEFMRASGVPAELITSKRAYAVKAIYADAVDKGTPDEIVKKDGMIVALISQMRS”, the “soluble fraction (log2)” value was -0.159.

“HMHKLTIEEALNYKTPANAGGPYSGKPFRDIYDQRGKAAVISFAKYYLSKATPEDPMVEVYRTLLDGAMEL”: the “soluble fraction (log2)” value amounted to 0.102.

For “HMHKREKSFFETIYDDIPGIGKKRRVQLLSAYPTLDSLKSVTLEELKQIVPEESAKLILEKRDSR”, the “soluble fraction (log2)” value was 0.407.

For the sequence “HMHPARITATVRVGEGDLVDIEREAELGGPIHSKGVMILSSFLGARYARTVPLSLSASLVFEQSY”, the “soluble fraction (log2)” value was determined as 0.0113.

“HMHPDALTEREREVLSLLADGLSNREIAARLVLALGTVKWYISVIYSKLGVTRRTQAIARARELHLV”: the “soluble fraction (log2)” value was -0.41.

“HMHPEETVNLILDAAFRLFLEKGYEHTSIQDIIGQLGGLSKGAIYHHFNSKEDILIAVTDRMTA”: the “soluble fraction (log2)” value is -1.67.

In the case of “HMHPEQTLEKIVDISAELFAKKGYEQTSIQDILDATGLSKGGLYHHFKSKEEILEAVMQKRVQY”, the “soluble fraction (log2)” value was -0.647.

Take “HMHPFELNTVTEGQLKRLPFLSDLQIRELLEYRSRYGKMLTLYELKNVEAFDLETISLLVPFIYISEI”: the “soluble fraction (log2)” value is -1.44.

For “HMHPKTPDELLALMSEEQRGQIEQLAKLVLMAVSYSGASYYDAVTTMYPRMSEERRRIITHVLNTASP”, the “soluble fraction (log2)” value was -0.825.

Turning to “HMHPLFRVVLAGEPNGVGLDDWLTRHEAELINGPSAIGVLTVKIAMGRRSFETVLDEIRADGETIFVEPV”, the “soluble fraction (log2)” value is -2.02.

With “HMHPTDMKLTARLEEGAQFVRTQQLSKAIEIFTEVIKLDQNWAEAWNKRATVFYMMGKFKQSQEDIDKVLA”, the “soluble fraction (log2)” value is -0.12.
